Measurements published in patent publication US9951373B2, “Oplophorus-derived luciferases, novel coelenterazine substrates, and methods of use” (Promega Corporation, priority 2010, dated 2018).

Experiments:
HEK293 cells [1] = details: mole-to-mole basis, HT7 fusions
[2] = Stability of variants expressed in HEK293 cells; type: physicochemical; details: 20 μM PBI-3939
Protocol: The variants 9B8 and V2 (9B8+K33N+T39T+K43R+Y68D) were also screened in HEK293 cells to determine their stability. The variants were cloned into pF4Ag and transfected into HEK293 cells (15,000 cells/well) as previously described. After transfection, the cells were lysed in assay reagent (as previously described; no PBI-3939), and luminescence measured using the assay reagent with 20 μM PBI-3939. […] This is consistent with the half-life seen for these variants in E. coli (Table 26).

NIH3T3 cells = test: Luminescence of OgLuc variants expressed in NIH3T3 cells; type: cell-based; details: PBI-3939
Protocol: (§1) The PCR library in the pF4Ag-based non-fusion background was screened for additional variants with increased luminescence compared to 9B8 opt+K33N+170G (SEQ ID NOs: 68 and 69). Selected variants were then assayed in HEK293 and NIH3T3 cells. For each cell type, 15,000 cells were plated and grown overnight at 37° C. The next day, the cells were transfected as described in Example 25 with 10 ng pGL4.13 (Promega Corp.) as a transfection control and 100 ng of the OgLuc test DNA. The media was removed, and the cells were lysed with 100 μL of lysis buffer as described in Example 25 except the lysis buffer contained 100 mM MES pH 6.0 instead of HEPES, and luminescence measured using a GLOMAX® Luminometer.
(§2) Based on the above data, further combination variants were designed and generated (see Table 10) in the context of the pF4Ag-based non-fusion vector background without the 170G. The variants were analyzed in E. coli, HEK293 and NIH3T3 cells as described above and compared to 9B8 opt+K33N. The variants were also examined for luminescence with native coelenterazine.
(§3) The brightness of the variants expressed in HEK293 and NIH3T3 cells was measured as described previously. The luminescence of the variants was normalized to the luminescence generated by 9B8 opt (Table 27).

HEK293 cells [3] = test: Luminescence of OgLuc variants expressed in HEK293 cells; type: cell-based, human; details: PBI-3939
Protocol: as §1, §2, §3

[4] = Luminescence of 9B8 opt+K33N derived variants in E. coli; type: biochemical; details: bacterial lysates
Protocol: Luminescence generated from the lysates was measured using the novel PBI-3939 and native coelenterazine as substrates. The relative specificity of the variants for PBI-3939 and native coelenterazine was calculated as described previously.
A new OgLuc library was created using 9B8opt+K33N as a starting template. The random library was created using DIVERSIFY® PCR Random Mutagenesis Kit (ClonTech; Catalog #630703). Condition 5 (as listed in the user manual) was used to generate additional variants, and the average mutation rate was calculated to be 2.6 mutations per gene by compiling sequence data from 83 randomly selected clones. This PCR library was cloned into the pF4Ag-based, non-fusion vector background described previously and the sandwich background, i.e., Id-OgLuc-HT7 (described in Example 45). Variants in the pF4Ag-base non-fusion vector background are designated with (NF). Variants in the sandwich vector background are designated with (F). In order to clone the PCR product into both vectors, an amino acid, i.e., a glycine, was appended to the variant sequence in pF4Ag, generating a new position 170 in the OgLuc variant (“170G”). The 170G is present in the sandwich construct, but in this case is considered part of the linker between OgLuc and HT7. For each library, 4,400 E. coli clones were assayed as described previously with the following exceptions. […] The assay buffer contained 100 mM MES pH 6.0 instead of HEPES, and 35 mM thiourea. The assay volumes were as follows: 10 μL cells, 40 μL, lysis buffer, and 50 μL, assay buffer.
E. coli lysates containing the variants were prepared and analyzed as described previously. Luminescence generated from the lysates was measured using the novel PBI-3939 and native coelenterazine as substrates. The luminescence of the variants was normalized to the luminescence generated by 9B8 opt (Table 12). The relative specificity of the variants for PBI-3939 and native coelenterazine was calculated by dividing the luminescence of the variants using PBI-3939 as a substrate with the luminescence of the variants using native coelenterazine as a substrate (Table 12).

[5] = Enzyme kinetics of OgLuc variants in E. coli lysates; type: biochemical; details: PBI-3939, E. coli lysates
Protocol: Using methods known in the art, enzyme kinetic assays measuring luminescence were performed with the lysates of E. coli containing IV and the IV variants 15C1, 9B8, 9F6, and 9A3. […] Two fold serial dilutions of PBI-3939 in the assay buffer described previously in Example 26 were assayed with the diluted lysates. […] Variants 9B8 and 9F6 had higher Km values compared to IV while Km values for the other variants were unchanged.
Luminescence was measured on a TECAN® INFINITE® F500 luminometer.
The enzyme kinetics values were determined for the OgLuc variants as described previously, except luminescence was measured using a GLOMAX® luminometer. Three replicates were used for each variant.

[6] = Stability of secreted OgLuc variants in saved media; type: physicochemical; details: secreted variant in saved media
Protocol: To determine if the secretion signal sequence of OgLuc facilitates its secretion, the OgLuc variants 9B8, V2 and L27V were cloned into pF4Ag containing an N-terminal OgLuc secretion signal sequence. The variants were also cloned into vectors without the secretion signal sequence. CHO or HeLa cells were then plates at 100,000 cells/well in 1 mL F12 media with 10% FBS and 1× sodium pyruvate (CHO cells) or DMEM with 10% FBS and 1× sodium pyruvate (HeLa cells) into 12-well plates and incubated overnight at 37° C., 5% CO2.
After the overnight incubation, the cells were transfected with 1 μg plasmid DNA containing 9B8, V2, or L27V with or without the secretion signal sequence using the TRANSIT®-LT1 transfection reagent (Mirus Bio) and OPTI-MEMO media (Invitrogen). The cells were again incubated overnight at 37° C., 5% CO2.
After the second overnight incubation, the media was removed and saved for analysis. […] To 10 μL of cell lysate or saved media from each sample, 50 μL assay buffer with 40 μM PBI-3939 was added, and luminescence measured as described above.
To determine the stability of the secreted variants, 150 μL aliquots of the saved media from each sample was placed at 37° C. or 50° C. The aliquots were then removed at different time points (0, 1, 2, 3, 5, 6, and 7 […]), frozen on dry ice, and kept at −20° C. until assayed. To assay for stability, the media aliquots were thawed to room temperature, and 10 μL of each aliquot was mixed with assay buffer with PBI-3939 (pH 6.0) as described above. Luminescence was measured as above, and the half-life (t50) determined (Table 34).

[7] = Thermal stability of OgLuc variants at 60° C.; type: physicochemical; details: 60° C., assay buffer MES pH 6.0
Protocol: Aliquots were removed at different time-points and placed on dry ice to freeze the samples. […] Luminescence was measured on a GLOMAX® luminometer (Promega Corp.).
The thermal stability of the variants at 60° C. was examined as described above, except the assay buffer contained 100 mM MES pH 6.0 instead of HEPES.

[8] = Protein (thermal) stability of OgLuc variants at 50° C.; type: physicochemical; details: bacterial lysates, native coelenterazine
Protocol: Lysates of E. coli containing 15C1, 9B8, 9F6, 8A3 or IV and E. coli expressing hRL (SEQ ID NO: 30 and 31) were prepared from induced cultures as described previously. Lysate samples were diluted 1:1000 with a buffer containing 10 mM HEPES pH 7.5 with 0.1% gelatin. Diluted lysate (100 μL) samples, in replicate 96-well plates, were incubated at 50° C. At different time points, plates were placed at −70° C. (minus seventy degrees Celsius). Prior to measuring the luminescence as described previously, each plate was thawed at room temperature, i.e., 22° C., for 10 min. Samples (10 μL of each thawed sample) were assayed using native coelenterazine as a substrate. Luminescence was measured immediately after addition of assay buffer for each time point plate. The half-life of the protein, which indicated protein stability, was calculated from the luminescence data for each time point using methods known in the art.

B1: 9B8: IV variant with Q18L, F68Y, L72Q, M75K (SEQ ID NO: 19) (protein)
chain: MVFTLEDFVGDWRQTAGYNLDQVLEQGGLSSLFQKLGVSVTPIQKIVLSGENGLKIDIHVIIPYEGLSGYQMGQIEKIFKVVYPVDDHHFKVILHYGTLVIDGVTPNMIDYFGRPYEGIAVFDGKKITVTGTLWNGNKIIDERLINPDGSLLFRVTINGVTGWRLCERILA
fold brighter than Luc2 (HEK293 cells [1]): approximately 15 fold | fold brighter than hRL (HEK293 cells [1]): > 100 fold | half-life [2]: 5.2 h | luminescence normalized to 9B8 opt, NIH3T3 (NIH3T3 cells): 1.0 | luminescence normalized to 9B8 opt, HEK293 (HEK293 cells [3]): 1.0 | Fold over coelenterazine ([4]; luminescence with PBI-3939 divided by luminescence with native coelenterazine): 7 | Fold over 9B8 ([4]; luminescence with PBI-3939 normalized to 9B8 opt): 1.0 | Km [5]: 7.7 µM | Vmax [5]: 86,000,000 RLU/0.5 sec | ½ life 37 C. [6]: 8 days | ½ life 50 C. [6]: 3 h | 1/2 life hours [7]: 5.1 h | ½ life (hrs) [8]: 5.8 h | ½ life (min) [8]: 346.6 min
